# Data as given in article PMC6277545, “Structural Basis for the Limited Response to Oxidative and Thiol-Conjugating Agents by Triosephosphate Isomerase From the Photosynthetic Bacteria Synechocystis” (Frontiers in Molecular Biosciences, 2018).
# Substrate: O=CC(O)COP(=O)(O)O
# Experiment: coupled alpha-glycerophosphate dehydrogenase assay, A340
# Type: biochemical, Synechocystis sp. PCC 6803
# Settings: 0.1 M TEA pH 7.4, 10 mM EDTA, 0.2 mM NADH, G3P 0-5 mM, G3P to DHAP
# Excerpt: coupled alpha-glycerophosphate dehydrogenase assay, A340 on SyTPI
Protein,Km [µM],kcat [s⁻¹],kcat/Km [M⁻¹ s⁻¹]
"SyTPI (Synechocystis sp. PCC 6803 substr. Kazusa; C127A/C176S/C42A) (protein, full length, codon-optimised, E. coli BL21(DE3) delta-tpi; His tag cut by PreScission, extra Gly-Pro-His before Met1; homodimer 54 kDa) MRKIIIAGNWKMHKTQAEAQAFLQGFKPLIEDAAESREVVLAVPFTDLSGMSQQLHGGRVRLGAQNVHWEASGAYTGEISAAMLTEIGIHYVVIGHSERRQYFGETDETANLRVLAAQKAGLIPILAVGESKAQRDAGETEQVIVDQVKKGLVNVDQSNLVIAYEPIWAIGTGDTSAATEANRVIGLIREQLTNSQVTIQYGGSVNANNVDEIMAQPEIDGALVGGASLEPQSFARIVNFQP",1400 ± 150,21.3 ± 1,15200
"SyTPI (Synechocystis sp. PCC 6803 substr. Kazusa; C127A/C42A) (protein, full length, codon-optimised, E. coli BL21(DE3) delta-tpi; His tag cut by PreScission, extra Gly-Pro-His before Met1; homodimer 54 kDa) MRKIIIAGNWKMHKTQAEAQAFLQGFKPLIEDAAESREVVLAVPFTDLSGMSQQLHGGRVRLGAQNVHWEASGAYTGEISAAMLTEIGIHYVVIGHSERRQYFGETDETANLRVLAAQKAGLIPILAVGESKAQRDAGETEQVIVDQVKKGLVNVDQSNLVIAYEPIWAIGTGDTCAATEANRVIGLIREQLTNSQVTIQYGGSVNANNVDEIMAQPEIDGALVGGASLEPQSFARIVNFQP",1100 ± 30,1630 ± 53,1.48e+06
"SyTPI (Synechocystis sp. PCC 6803 substr. Kazusa; C127A) (protein, full length, codon-optimised, E. coli BL21(DE3) delta-tpi; His tag cut by PreScission, extra Gly-Pro-His before Met1; homodimer 54 kDa) MRKIIIAGNWKMHKTQAEAQAFLQGFKPLIEDAAESREVVLCVPFTDLSGMSQQLHGGRVRLGAQNVHWEASGAYTGEISAAMLTEIGIHYVVIGHSERRQYFGETDETANLRVLAAQKAGLIPILAVGESKAQRDAGETEQVIVDQVKKGLVNVDQSNLVIAYEPIWAIGTGDTCAATEANRVIGLIREQLTNSQVTIQYGGSVNANNVDEIMAQPEIDGALVGGASLEPQSFARIVNFQP",1040 ± 80,1770 ± 56,1.71e+06
"SyTPI (Synechocystis sp. PCC 6803 substr. Kazusa) (protein, full length, codon-optimised, E. coli BL21(DE3) delta-tpi; His tag cut by PreScission, extra Gly-Pro-His before Met1; homodimer 54 kDa) MRKIIIAGNWKMHKTQAEAQAFLQGFKPLIEDAAESREVVLCVPFTDLSGMSQQLHGGRVRLGAQNVHWEASGAYTGEISAAMLTEIGIHYVVIGHSERRQYFGETDETANLRVLAAQKAGLIPILCVGESKAQRDAGETEQVIVDQVKKGLVNVDQSNLVIAYEPIWAIGTGDTCAATEANRVIGLIREQLTNSQVTIQYGGSVNANNVDEIMAQPEIDGALVGGASLEPQSFARIVNFQP",800 ± 20,1850 ± 43,2.31e+06
"SyTPI (Synechocystis sp. PCC 6803 substr. Kazusa; C42A) (protein, full length, codon-optimised, E. coli BL21(DE3) delta-tpi; His tag cut by PreScission, extra Gly-Pro-His before Met1; homodimer 54 kDa) MRKIIIAGNWKMHKTQAEAQAFLQGFKPLIEDAAESREVVLAVPFTDLSGMSQQLHGGRVRLGAQNVHWEASGAYTGEISAAMLTEIGIHYVVIGHSERRQYFGETDETANLRVLAAQKAGLIPILCVGESKAQRDAGETEQVIVDQVKKGLVNVDQSNLVIAYEPIWAIGTGDTCAATEANRVIGLIREQLTNSQVTIQYGGSVNANNVDEIMAQPEIDGALVGGASLEPQSFARIVNFQP",1010 ± 30,1780 ± 42,1.76e+06
"SyTPI (Synechocystis sp. PCC 6803 substr. Kazusa; C176S/C42A) (protein, full length, codon-optimised, E. coli BL21(DE3) delta-tpi; His tag cut by PreScission, extra Gly-Pro-His before Met1; homodimer 54 kDa) MRKIIIAGNWKMHKTQAEAQAFLQGFKPLIEDAAESREVVLAVPFTDLSGMSQQLHGGRVRLGAQNVHWEASGAYTGEISAAMLTEIGIHYVVIGHSERRQYFGETDETANLRVLAAQKAGLIPILCVGESKAQRDAGETEQVIVDQVKKGLVNVDQSNLVIAYEPIWAIGTGDTSAATEANRVIGLIREQLTNSQVTIQYGGSVNANNVDEIMAQPEIDGALVGGASLEPQSFARIVNFQP",1460 ± 20,2130 ± 62,1.46e+06
"SyTPI (Synechocystis sp. PCC 6803 substr. Kazusa; C127A/C176S) (protein, full length, codon-optimised, E. coli BL21(DE3) delta-tpi; His tag cut by PreScission, extra Gly-Pro-His before Met1; homodimer 54 kDa) MRKIIIAGNWKMHKTQAEAQAFLQGFKPLIEDAAESREVVLCVPFTDLSGMSQQLHGGRVRLGAQNVHWEASGAYTGEISAAMLTEIGIHYVVIGHSERRQYFGETDETANLRVLAAQKAGLIPILAVGESKAQRDAGETEQVIVDQVKKGLVNVDQSNLVIAYEPIWAIGTGDTSAATEANRVIGLIREQLTNSQVTIQYGGSVNANNVDEIMAQPEIDGALVGGASLEPQSFARIVNFQP",1190 ± 80,683 ± 6,573000
